Test results reported in patent publication US6958321B2, “Isolation, characterization, cloning and use of a mushroom lectin” (The Regents of the University of Michigan, priority 2001, dated 2005).

Legend:
Test in all cases: Agglutination of cells by Marasmius oreades lectin
Assay type in all cases: cell-based
Human A erythrocytes = details: human type A erythrocytes
Procedure: (§1) In some embodiments, blood group specificity of MOA is determined in hemagglutination assays (see Examples below). Briefly, formaldehyde-treated erythrocytes in V-well microtitre plates are used in a protocol as described in Mo et al. [J. Biol. Chem 275:10623 (2000)], herein incorporated by reference. […] Example 3, below, presents the data for agglutination activity against a variety of cell types. […] Biochemistry 22: 5290 (1983)].
(§2) Hemagglutination assays were carried out using formaldehyde-treated erythrocytes in V-well microtitre plates as described by Mo et al. [J. Biol. Chem 275:10623 (2000)], herein incorporated by reference. Titres were recorded as the greatest dilution of the lectin solution yielding visible agglutination. Agglutination of Ehrlich ascites tumor cells (grown in in vitro culture) was observed microscopically.
(§3) Hemagglutination activity was unchanged by extensive dialysis of the lectin and assay in metal-free buffer containing EDTA, indicating the absence of a divatent metal ion requirement. As noted in Example 2, subsequent assays and purifications routinely used metal-free buffers containing EDTA.

[1] = system: Cultured Ehrlich ascites tumor cells
Procedure: as §1, §2, §3

Human O erythrocytes = details: human type O erythrocytes
Procedure: as §1, §2, §3

Human B erythrocytes = system: Human B erythrocytes
Procedure: as §1, §2, §3

B1: MOA: M. oreades lectin (agglutinin) with binding specificity for Galα1,3Gal; single polypeptide of approximately 33 kDa (protein)
chain: MSLRRGIYHIENAGVPSAIDLKDGSSSDGTPIVGWQFTPDTINWHQLWLAEPIPNVADTFTLCNLFSGTYMDLYNGSSEAGTAVNGWQGTAFTTNPHQLWTIKKSSDGTSYKIQNYGSKTFVDLVNGDSSDGAKIAGWTGTWDEGNPHQKWYFNRMSVSSAEAQAAIARNPHIHGTYRGYILDGEYLVLPNATFTQIWKDSGLPGSKWREQIYDCDDFAIAMKAAVGKWGADSWKANGFAIFCGVMLGVNKAGDAAHAYNFTLTKDHADIVFFEPQNGGYLNDIGYDSYMAFY
B1 was tested, and the “hemagglutination activity” value (Human A erythrocytes) was “very little activity”, the “agglutination” value [1] was “readily agglutinated” and the “hemagglutination activity” value (Human O erythrocytes) was “very little activity”. The “hemagglutination activity” value (Human B erythrocytes) was “Strong”.
